Patent publication US20220054617A1 (REGENTS OF THE UNIVERSITY OF MINNESOTA, published 2022)

B1: DENV-3 antigen (other)
chain: SNALKGMSYAMCTNTFVLKKEVSETQHGTILIKVEYKGEDAPCKIPFSTEDGQGKAHNGRLITANPVVTKKEEPVNIEAEPPFGESNIVIGIGDNALKINWYKK
B2: DENV-4 antigen (other)
chain: SNAIKGMSYTMCSGKFSIDKEMAETQHGTTVVKVKYEGTGAPCKVPIEIRDVNKEKVVGRIISSTPFAENTNSVTNIELEPPFGDSYIVIGVGDSALTLHWFR

Experiments:
Test in all cases: size exclusion chromatography of the tetravalent antigen mixture without adjuvant
[1] = molecular target: DENV-2 antigen (dengue virus serotype 2 (DENV-2), UniProt P14337 573-674)
[2] = molecular target: B2
[3] = molecular target: B1

Row | Binder | binding result [1] | binding result [2] | binding result [3]
1 | B1 | no binding |  | 
2 | DENV-1 antigen (other, also called DENV-1 Ag) SNALKGVSYVMCTGSFKLEKEVAETQHGTVLVQVKYEGTDAPCKIPISTQDEKGVTQNGRLITANPIVTDKEKPVNIETEPPFGESYIVIGAGEKALKLSWFK | no binding | no binding | no binding
3 | B2 | no binding |  | no binding
